Laboratory results reported in patent publication US12624096B2, “Anti-tau antibodies and methods of use thereof” (GTInvent Limited, priority 2020, dated 2026).

Columns and labels:
[1] = target: aggregated dGAE (Homo sapiens, UniProt P10636); test: Capture ELISA ranking of mAbs on dGAE aggregates; assay type: binding; conditions: 1 μg/ml capture mAb, 800 nM aggregated dGAE
Procedure: The aggregation cascade of natively unfolded tau into insoluble filaments is a defining pathological feature of AD. Therefore, it is logical to target aggregated tau filaments for both therapeutic and diagnostic purposes. The following experiment was performed to assess the ability of our dGA mAb panel to bind aggregated dGAE using a capture ELISA method. Aggregates were prepared by incubating 100 μM dGAE and 10 mM dTT for 24 h at 37° C. with shaking at 700 RPM. The following day, dGAE aggregates were centrifuged at 17,000×g for 20 min and the supernatant was removed. The remaining pellet was washed with 10 mM phosphate buffer and centrifuged as above. Washing was repeated a further two times to remove any remaining dGAE monomer. The dGAE pellet was resuspended in 100 μl of 10 mM phosphate buffer. (Using a separate capture ELISA based quantification, we have worked out the efficiency of our dGAE aggregation as 80%)
For assessing the mAb panel for aggregate binding, designated rows of a maxisorp plate were coated with 1 μg/ml of each of the capture mAbs (S1D12, S1G2, CA4, NS2A1, CE2, E2E8 and CB7) and blocked as before. Following washing, 800 nM aggregated dGAE was added to the designated wells, double diluted across the plate and incubated for 1 h at RT. The plate was washed again and 1 μg/ml S1G2 scAb was added as detection antibody and incubated for 1 h at RT. To the row where S1G2 mAb was used for capture, […] s1D12 scAb was added as […] instead of S1G2. The assay was developed using HRP labelled HuCK as described previously.

[2] = target: dGAE (Homo sapiens, UniProt P10636); test: Biacore X100 SPR, scAb captured via anti-HuCk, dGAE as analyte; assay type: binding; conditions: dissociation rate
Procedure: Surface plasmon resonance (SPR) is widely regarded as the gold standard for real time measurement of protein-protein interactions such as antibody binding. All SPR experiments were carried out using a Biacore X100 machine and HBS EP+ running buffer (GE Healthcare). A ‘capture’ method was followed for affinity measurements, where an anti-human constant kappa chain (HuCk) antibody was conjugated to the surface of a CM5 sensor chip using an amine coupling kit and scAb molecules were immobilised via their HuCk domain. Amine coupling is a very common approach for immobilising the ligand to the chip surface. The chip surface has a dextran matrix derivatised with carboxyl groups, which after activation with N-hydroxysuccinimide (NHS) and 1-ethyl-3-(3-dimethylaminopropyl) carbodiimide (EDC), form reactive succinimide esters which allows the covalent capturing of the ligand via any available primary amine groups (e.g. Lysine) on the ligand (in this case anti-HuCk antibody). The capture antibody was diluted 1/100 in 10 mM Sodium acetate buffer pH 5.0 and passed over the activated chip surface for a period of at least 420 s. […]
The single cycle kinetics protocol was similar and utilised the same level of scAb capture. […] Binding responses were analysed in Biacore X100 evaluation software and data fitted to a 1:1 binding model to obtain kinetic and affinity characterisation.

[3] = test system: hT40, dGA, dGAE and truncated tau fragments/peptides; test: Binding ELISA for epitope mapping with truncated tau proteins and biotinylated 13mer peptides; set-up: species or system human; conditions: direct binding ELISA
Procedure: A series of binding ELISA was performed using various truncated versions of the tau protein and 13mer peptide libraries spanning the entire hT40 molecule for mapping the epitopes of anti-tau scAbs (Full list of protein antigens used is given in Table 14). In general, ELISA plates were coated with 1 μg/ml hT40 or dGA or dGAE or other truncated versions of the protein and in the case of biotinylated peptides, plates were coated with 5 μg/ml Streptavidin followed by 1 μg/ml biotinylated peptide. The plates were blocked with 2% MPBS and scAb samples added at desired starting concentrations and double diluted across the plate. Binding was detected using anti-Human C Kappa HRP conjugated secondary antibody and the resulting immunoreaction was developed and absorbance values measured as described above.
Similarly, dGA binding ‘NS’, ‘S’ and ‘M’ group scAbs were subjected to further antigen binding ELISA using shorter tau proteins and biotinylated 13mer peptides as shown below (FIGS. 10A-F) and (FIGS. 11A-R).
For anti-tau mAb SPR measurements (Biacore X100™) and epitope mapping, the same methodologies described above (see Example 16) were followed.

[4] = target: T1, hT40 (Homo sapiens, UniProt P10636); test: Biacore X100 SPR, scAb captured via anti-HuCk, hT40 as analyte; assay type: binding; conditions: scAb
In short: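 Captured scAb on anti-HuCk CM5 surface (flow cell 1 as reference) in HBS-EP+, capture set for theoretical RMax 100 RU; hT40 injected multi-cycle (0.15625–100 nM) or single-cycle (6.25–100 nM), 120 s association, 420 s dissociation, glycine pH 2.0 regeneration. Kinetics and affinity from 1:1 binding model fit.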

[5] = target: T1, hT40; test: Sandwich ELISA, limits of detection (LoD) of antibody pairs; assay type: binding; conditions: S1D12 mAb capture, detection scAb
Procedure: Full length tau (hT40), at 1 μg/ml starting concentration was added to designated wells and double diluted across rest of the plates and left to incubate at R/T for 1 h. A series of detection scAbs with varying epitope recognition properties were added at 10 μg/ml to designated wells (FIG. 22). For colourimetric detection HRP conjugated anti-HuCk secondary antibody was used and the resulting immunoreaction was developed and absorbance at 450 nm measured as described previously. Cut-off point for a positive binding event was an absorbance value of 0.3 following background subtraction. In order to enhance the assay sensitivity, a chemiluminescent detection method was adopted where 50 μL SuperSignal ELISA Femto Substrate (Thermo Scientific) was added to each well following incubation with anti-HuCK HRP antibody and subsequent washing. The luminescence was read using Clariostar Plus microplate reader. A further modification to this protocol was done where various detection scAbs were directly conjugated with HRP and detected using chemiluminescent protocol as before. The lowest levels of detection achieved using different detection scAbs and a comparison of colourimetric and chemiluminescent methods of detection are shown in Table 28
The assay was conducted using chemiluminescent protocol described above.

T1 sequence (P10636 1-441 isoform P10636-8): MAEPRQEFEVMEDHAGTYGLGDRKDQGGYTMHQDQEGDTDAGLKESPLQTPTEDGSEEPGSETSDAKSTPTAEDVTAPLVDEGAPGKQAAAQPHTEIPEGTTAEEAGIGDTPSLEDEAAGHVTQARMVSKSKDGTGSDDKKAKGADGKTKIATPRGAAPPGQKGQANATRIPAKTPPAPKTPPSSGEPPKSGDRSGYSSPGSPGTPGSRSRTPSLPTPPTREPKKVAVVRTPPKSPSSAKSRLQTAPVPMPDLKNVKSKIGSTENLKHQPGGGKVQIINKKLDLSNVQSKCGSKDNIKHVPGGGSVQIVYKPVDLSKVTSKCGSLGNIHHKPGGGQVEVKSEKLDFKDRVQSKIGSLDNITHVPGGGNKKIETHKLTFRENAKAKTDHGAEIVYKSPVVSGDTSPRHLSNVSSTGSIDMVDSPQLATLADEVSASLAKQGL
dGAE, sequence (P10636 614-708): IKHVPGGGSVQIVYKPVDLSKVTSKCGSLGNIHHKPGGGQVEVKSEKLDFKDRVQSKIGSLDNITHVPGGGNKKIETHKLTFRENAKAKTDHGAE
aggregated dGAE, sequence (P10636 614-708): as above

| Molecule | ability to capture aggregated dGAE [1] | Kd [2] [s⁻¹] | cross-reactivity of 'E' group scAbs using hT40, dGA and dGAE antigens [3] | other results |
| --- | --- | --- | --- | --- |
| S1G2 mAb: S1G2 reformatted as mAb, SEQ ID NO: 457 and 458 (antibody, S1G2 mAB Heavy Chain; S1G2 mAB Light Chain) heavy: QVQLQESGPSLVKPSQTLSLTCTVSGFSLTSNSVGWVRQAPGKAPEWVAGIDTDGEEGYNPALNSRLSITRDTSKSQVSLSLSSVTSEDTAVYYCGRSYRADGLAYGYVQAIDYWGPGLLVTVSSAKTTAPSVYPLAPVCGDTTGSSVTLGCLVKGYFPEPVTLTWNSGSLSSGVHTFPAVLQSDLYTLSSSVTVTSSTWPSQSITCNVAHPASSTKVDKKIEPRGPTIKPCPPCKCPAPNLLGGPSVFIFPPKIKDVLMISLSPIVTCVVVDVSEDDPDVQISWFVNNVEVHTAQTQTHREDYNSTLRVVSALPIQHQDWMSGKEFKCKVNNKDLPAPIERTISKPKGSVRAPQVYVLPPPEEEMTKKQVTLTCMVTDFMPEDIYVEWTNNGKTELNYKNTEPVLDSDGSYFMYSKLRVEKKNWVERNSYSCSVVHEGLHNHHTTKSFSRTPGK light: QAVVTQPSSVSGSLGQRVSITCSGSFIGISSVGWFQQLPGSGLRTIIVASDGRPSGVPDRFSMSKSGNTATLTISSLQAEDEADYFCGSSDRTPYTGVFGSGTRLTVLGGQPKSSPSVTLFPPSSEELETNKATLVCTITDFYPGVVTVDWKVDGTPVTQGMETTQPSKQSNNKYMASSYLTLTARAWERHSSYSCQVTHEGHTVEKSLSRADCS | most efficient at capturing aggregated dGAE | – | – | – |
| E2E8 mAb: E2E8 reformatted as mAb, SEQ ID NO: 493 and 494 (antibody, E2E8 mAB Heavy Chain; E2E8 mAB Light Chain) heavy: QVQLQESGPSLVKPSQTLSLTCTVSGFSLTDRGVAWVRQAPGKALEWVGTMRSGGTIDYNPALKSRLSITRDTSKSQVFLSLSSVTTEDMAMYYCARGYLSGDRYAWGRGLLVTVSSAKTTAPSVYPLAPVCGDTTGSSVTLGCLVKGYFPEPVTLTWNSGSLSSGVHTFPAVLQSDLYTLSSSVTVTSSTWPSQSITCNVAHPASSTKVDKKIEPRGPTIKPCPPCKCPAPNLLGGPSVFIFPPKIKDVLMISLSPIVTCVVVDVSEDDPDVQISWFVNNVEVHTAQTQTHREDYNSTLRVVSALPIQHQDWMSGKEFKCKVNNKDLPAPIERTISKPKGSVRAPQVYVLPPPEEEMTKKQVTLTCMVTDFMPEDIYVEWTNNGKTELNYKNTEPVLDSDGSYFMYSKLRVEKKNWVERNSYSCSVVHEGLHNHHTTKSFSRTPGK light: QAVLTQPSSVSKSLGQSVSIACSGSRSDIGYGNYVSWFQQIPGSAPKLLIYDTNTRASGVPDRFSGARSGNTATLTINSLQAEDEADYYCANIDSSRSHLFGSGTRLTVLGGQPKSSPSVTLFPPSSEELETNKATLVCTITDFYPGVVTVDWKVDGTPVTQGMETTQPSKQSNNKYMASSYLTLTARAWERHSSYSCQVTHEGHTVEKSLSRADCS | most efficient at capturing aggregated dGAE | – | – | – |
| E1E8: anti-tau clone, SEQ ID NO: 250 (protein, E1E8 amino acid sequence) scFv: QVQLQESGPSLVKPSQTLSLTCTVSGFSLTDWGVAWVRQAPGKALEWLGTMRSGGTTDDNPALKSRLSITRDTSKSQVSLSLSSVTTEDMAMYYCARGYLSGVHYAWGRGLLVTVSSEGKSSGASGESKVDDQAVLTQPSSVSGSLGQSVSITCSGSSSNVGDGRYVSWFQQVPGSAPKLLIYDTTSRASGVPDRFSGSRSGNTATLIITSLQAEDEADYYCASIDSGNNLLFGSGTRLTVLG | – | 0.0014 | specific dGAE binding | – |
| E2E8: anti-tau clone, SEQ ID NO: 248 (protein, E2E8 amino acid sequence) scFv: QVQLQESGPSLVKPSQTLSLTCTVSGFSLTDRGVAWVRQAPGKALEWVGTMRSGGTIDYNPALKSRLSITRDTSKSQVFLSLSSVTTEDMAMYYCARGYLSGDRYAWGRGLLVTVSSEGKSSGASGESKVDDQAVLTQPSSVSKSLGQSVSIACSGSRSDIGYGNYVSWFQQIPGSAPKLLIYDTNTRASGVPDRFSGARSGNTATLTINSLQAEDEADYYCANIDSSRSHLFGSGTRLTVLG | – | 0.0001915 | specific dGAE binding | T441 binding (in words) ([4]; Table 23): No T441 binding; hT40 binding (in words) ([4]; Table 26 summary): No hT40 binding |
| CA2: anti-tau clone, SEQ ID NO: 363 (protein, CA2 amino acid sequence) scFv: QVQLQESGPSLVKPSQTLSLTCTVSGFSLSSVAVNWVRQAPGKVPEWLGGIISNGGTGYNPALKSRLSITRDTSKSQVSLALTHVTTEDTAVYYCGRGVEWEGSMDYLGPGLLVTVSSEGKSSGSGSETKVDDQSVLTQPSSVSGFLGQRVTITCSGSSSNVGAGSYVGWYQQVPGSGLRILIYGATKRASGLPDRFSGSRSGNTATLTISSLQAEDEADYYCVSYQTDFTLVFGSGTRLTVLG | – | – | – | LoD chemiluminescence detection [5]: 0.37 ng/mL; LoD colourimetric detection [5]: 6 ng/mL |
